Results as given in IntAct's records for PubMed 17259181.

B1: Zinc finger protein ZAT7 (Arabidopsis thaliana (Mouse-ear cress)), Q42453 (parent)
chain: MVARSEEIVIVEEDTTAKCLMLLSRVGECGGGCGGDERVFRCKTCLKEFSSFQALGGHRASHKKLINSDNPSLLGSLSNKKTKTSHPCPICGVKFPMGQALGGHMRRHRNEKVSGSLVTRSFLPETTTVTALKKFSSGKRVACLDLDLDSMESLVNWKLELGRTISWS
partner: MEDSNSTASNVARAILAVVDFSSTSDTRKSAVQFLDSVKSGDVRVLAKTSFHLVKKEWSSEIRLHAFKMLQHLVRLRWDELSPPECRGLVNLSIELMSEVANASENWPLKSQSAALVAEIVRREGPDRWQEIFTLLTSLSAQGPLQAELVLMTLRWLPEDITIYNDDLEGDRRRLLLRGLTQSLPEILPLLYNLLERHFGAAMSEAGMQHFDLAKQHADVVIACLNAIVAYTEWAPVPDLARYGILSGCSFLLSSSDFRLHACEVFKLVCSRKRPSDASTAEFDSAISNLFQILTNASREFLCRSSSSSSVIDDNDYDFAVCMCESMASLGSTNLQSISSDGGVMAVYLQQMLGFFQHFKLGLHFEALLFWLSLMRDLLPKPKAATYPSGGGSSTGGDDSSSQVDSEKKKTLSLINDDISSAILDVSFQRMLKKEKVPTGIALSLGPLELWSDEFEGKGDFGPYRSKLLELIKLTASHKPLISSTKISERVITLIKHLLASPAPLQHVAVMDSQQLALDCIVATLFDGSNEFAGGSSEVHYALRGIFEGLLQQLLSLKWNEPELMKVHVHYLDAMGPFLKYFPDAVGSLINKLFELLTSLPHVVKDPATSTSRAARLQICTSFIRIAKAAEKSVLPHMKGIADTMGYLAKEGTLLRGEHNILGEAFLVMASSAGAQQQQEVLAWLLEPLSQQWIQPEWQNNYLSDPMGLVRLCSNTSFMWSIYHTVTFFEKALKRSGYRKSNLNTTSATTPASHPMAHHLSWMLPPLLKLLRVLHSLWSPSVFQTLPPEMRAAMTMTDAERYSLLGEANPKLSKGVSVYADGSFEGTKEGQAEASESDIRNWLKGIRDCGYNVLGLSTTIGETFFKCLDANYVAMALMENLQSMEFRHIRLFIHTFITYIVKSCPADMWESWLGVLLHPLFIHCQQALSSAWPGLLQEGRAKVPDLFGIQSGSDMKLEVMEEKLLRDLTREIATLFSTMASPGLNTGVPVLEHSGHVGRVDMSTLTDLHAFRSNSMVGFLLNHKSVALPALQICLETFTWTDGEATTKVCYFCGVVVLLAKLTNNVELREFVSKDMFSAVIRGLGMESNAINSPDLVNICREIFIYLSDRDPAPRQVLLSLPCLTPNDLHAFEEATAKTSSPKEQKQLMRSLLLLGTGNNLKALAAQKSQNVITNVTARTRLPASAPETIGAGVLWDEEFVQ

Variants of: B1
Conditions: with hasty_arath HST1, Q0WP44

Variant | effect of a mutation on the interaction
MVARSEEIVIVEEDTTAKCLMLLSRVGECGGGCGGDERVFRCKTCLKEFSSFQALGGHRASHKKLINSDNPSLLGSLSNKKTKTSHPCPICGVKFPMGQALGGHMRRHRNEKVSGSLVTRSFLPETTTVTALKKFSSGKRVACLAAALDSMESLVNWKLELGRTISWS [D145A;L146A;D147A] | disrupting interaction
